Protein	kcat (Factor X (FX), P00742)	KM (Factor X, P00742)	KM (Factor X (FX), P00742)	kcat/KM (Factor X, P00742)
FIXa-Y155F/K247N/N249S/R318Y/T343R/E410N (protein) chain 1: not shown chain 2: not shown	8.1 s⁻¹	0.0381 µM		
FIXa-Y155F/K247N/N249S/T343R/R403E/E410N (protein) chain 1: not shown chain 2: not shown	15 s⁻¹	0.052 µM		
FIXa-R318Y/R338E/Y345A/R403E/E410N (protein) chain 1: not shown chain 2: not shown	1.4 s⁻¹		0.0188 µM	8.3e+07 M⁻¹ s⁻¹
FIXa-K247N/N249S/R318Y/R338E/T343R/E410N (protein) chain 1: not shown chain 2: not shown	8.8 s⁻¹	0.0328 µM		
FIXa-Y155F/K247N/N249S/R338E/T343R/R403E (protein) chain 1: not shown chain 2: not shown	14.6 s⁻¹	0.0251 µM		
FIXa-K247N/N249S/R318Y/T343R/R403E/E410N (protein) chain 1: not shown chain 2: not shown	9.5 s⁻¹	0.0805 µM		
FIXa-Y155F/K247N/N249S/R338E/T343R/E410N (protein) chain 1: not shown chain 2: not shown	4.8 s⁻¹	0.027 µM		
FIXa-K247N/N249S/R318Y/T343R/R403E (protein) chain 1: not shown chain 2: not shown	3.7 s⁻¹	0.105 µM		
FIXa-Y155F/K247N/N249S/R318Y/T343R/R403E/E410N (protein) chain 1: not shown chain 2: not shown	9 s⁻¹	0.0606 µM		
FIXa-K247N/N249S/R338E/T343R/E410N (protein) chain 1: not shown chain 2: not shown	7.9 s⁻¹	0.0275 µM		
FIXa-Y155F/K247N/N249S/R318Y/T343R/R403E (protein) chain 1: not shown chain 2: not shown	7.5 s⁻¹	0.0605 µM		
FIXa-R318Y/R338E/T343R/N346D/R403E/E410N (protein) chain 1: not shown chain 2: not shown	5.4 s⁻¹		0.067 µM	8.2e+07 M⁻¹ s⁻¹
FIXa-Y155F/K247N/N249S/R338E/E410N (protein) chain 1: not shown chain 2: not shown	7.3 s⁻¹	0.0177 µM		
FIXa-K247N/N249S/R318Y/T343R/E410N (protein) chain 1: not shown chain 2: not shown	6.1 s⁻¹	0.0401 µM		

Source: patent publication US11491212

Factor X (FX), P00742, sequence (P00742 whole entry, looked up): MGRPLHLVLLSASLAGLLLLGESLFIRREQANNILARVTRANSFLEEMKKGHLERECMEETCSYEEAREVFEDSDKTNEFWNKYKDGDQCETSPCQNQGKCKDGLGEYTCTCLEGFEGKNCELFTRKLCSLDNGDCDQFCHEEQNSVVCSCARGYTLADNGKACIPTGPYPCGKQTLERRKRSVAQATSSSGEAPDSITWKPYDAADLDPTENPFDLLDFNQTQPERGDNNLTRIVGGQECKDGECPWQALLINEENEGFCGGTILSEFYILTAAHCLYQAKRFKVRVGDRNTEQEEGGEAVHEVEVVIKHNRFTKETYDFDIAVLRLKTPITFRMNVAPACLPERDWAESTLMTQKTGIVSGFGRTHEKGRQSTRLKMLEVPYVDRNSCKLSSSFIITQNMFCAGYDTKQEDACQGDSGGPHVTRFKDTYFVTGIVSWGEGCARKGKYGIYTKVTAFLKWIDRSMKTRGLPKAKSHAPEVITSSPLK
Factor X, P00742, sequence (P00742 whole entry, looked up): as above
